Experimental data: article doi:10.1101/647354 (bioRxiv, 2019)

Target: T1, complement C5 (human, UniProt P01031 19-673; P01031 678-1676)
T1 construct: also called human C5; source: endogenous, human serum
Test: cryo-EM structure
Conditions: both partners purified

T1 sequence (P01031 19-673, chain 1 of 2): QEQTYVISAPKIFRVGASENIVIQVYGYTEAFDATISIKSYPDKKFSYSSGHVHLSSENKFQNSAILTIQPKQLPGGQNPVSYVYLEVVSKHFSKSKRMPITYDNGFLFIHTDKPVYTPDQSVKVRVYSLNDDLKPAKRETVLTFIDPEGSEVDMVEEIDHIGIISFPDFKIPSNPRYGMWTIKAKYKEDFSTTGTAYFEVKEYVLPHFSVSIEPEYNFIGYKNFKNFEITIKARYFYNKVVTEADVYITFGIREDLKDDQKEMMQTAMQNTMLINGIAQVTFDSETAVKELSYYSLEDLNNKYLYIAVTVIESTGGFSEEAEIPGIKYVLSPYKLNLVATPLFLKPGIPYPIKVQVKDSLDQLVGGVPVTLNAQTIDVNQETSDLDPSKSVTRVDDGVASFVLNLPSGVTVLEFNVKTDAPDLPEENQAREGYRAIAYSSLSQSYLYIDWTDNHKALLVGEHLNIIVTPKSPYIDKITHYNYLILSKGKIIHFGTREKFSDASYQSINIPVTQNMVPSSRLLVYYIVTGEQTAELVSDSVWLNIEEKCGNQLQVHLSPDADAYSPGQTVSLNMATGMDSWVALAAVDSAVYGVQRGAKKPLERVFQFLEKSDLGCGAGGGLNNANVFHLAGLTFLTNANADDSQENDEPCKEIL
T1 sequence (P01031 678-1676, chain 2 of 2): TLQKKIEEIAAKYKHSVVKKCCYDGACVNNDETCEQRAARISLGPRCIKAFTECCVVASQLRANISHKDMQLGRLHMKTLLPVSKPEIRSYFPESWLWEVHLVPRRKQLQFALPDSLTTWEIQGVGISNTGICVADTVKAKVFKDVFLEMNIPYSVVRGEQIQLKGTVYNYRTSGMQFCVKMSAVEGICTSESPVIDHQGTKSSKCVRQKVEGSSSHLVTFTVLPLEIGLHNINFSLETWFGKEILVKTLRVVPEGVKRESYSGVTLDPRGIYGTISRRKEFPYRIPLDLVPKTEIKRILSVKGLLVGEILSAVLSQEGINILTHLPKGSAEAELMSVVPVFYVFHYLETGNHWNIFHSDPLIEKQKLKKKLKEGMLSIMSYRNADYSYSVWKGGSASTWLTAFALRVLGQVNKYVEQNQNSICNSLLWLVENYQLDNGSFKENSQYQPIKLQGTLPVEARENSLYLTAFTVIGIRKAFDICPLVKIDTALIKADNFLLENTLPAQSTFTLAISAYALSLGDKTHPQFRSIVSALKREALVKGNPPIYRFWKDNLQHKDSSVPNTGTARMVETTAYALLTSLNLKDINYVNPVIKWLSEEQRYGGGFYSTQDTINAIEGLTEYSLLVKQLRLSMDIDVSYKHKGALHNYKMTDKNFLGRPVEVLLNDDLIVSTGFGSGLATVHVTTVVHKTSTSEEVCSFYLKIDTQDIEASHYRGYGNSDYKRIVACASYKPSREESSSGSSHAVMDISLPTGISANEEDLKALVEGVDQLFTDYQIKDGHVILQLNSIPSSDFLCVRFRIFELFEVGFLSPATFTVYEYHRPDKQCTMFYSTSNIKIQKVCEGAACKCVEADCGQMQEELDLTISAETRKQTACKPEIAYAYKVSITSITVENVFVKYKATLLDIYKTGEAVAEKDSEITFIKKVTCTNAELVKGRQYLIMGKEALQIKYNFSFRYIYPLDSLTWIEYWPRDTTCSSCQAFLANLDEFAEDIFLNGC

B1: OmCI (natural protein)
chain: DSESDCTGSEPVDAFQAFSEGKEAYVLVRSTDPKARDCLKGEPAGEKQDNTLPVMMTFKNGTDWASTDWTFTLDGAKVTATLGNLTQNREVVYDSQSHHCHVDKVEKEVPDYEMWMLDAGGLEVEVECCRQKLEELASGRNQMYPHLKDC
notes: also called Coversin; His-tagged OmCI
B1: binds.
